A short description of data set [1]: Phase 1 study of OMP-21M18: blood pressure readings and anti-hypertensive treatment of individual subjects.
Method: For study days in which an infusion of OMP-21M18 was administered, blood pressure readings include a reading pre-infusion, 15 minutes after the start of infusion, at the end of infusion, and 15 minutes post-infusion.
OMP-21M18 was administered at dosages of 0.5 mg/kg weekly to three subjects, 1.0 mg/kg weekly to three subjects, 2.5 mg/kg every two weeks to six subjects, 2.5 mg/kg weekly to six subjects, 5.0 mg/kg every two weeks to six subjects, 5.0 mg/kg weekly to three subjects, and 10.0 mg/kg every two weeks to six subjects. According to the study protocol, the administration period was nine weeks, unless a subject was removed from the study due to a dose limiting toxicity. Baseline blood pressure readings were taken just prior to administration of the first dosage. Toxicities were assessed using the National Institute of Health's Common Toxicity Criteria for Adverse Events (CTCAE) version 3.0. During the study, subjects were assessed for dose limiting toxicities from the time of the first dose through 7 days after administration of the fourth dose (Days 0-28).
The nature of data set [2]: Phase 1 dose escalation study of OMP-21M18 in subjects with solid tumors: incidence of hypertension (CTCAE v3.0). In kind it is in vivo. Conditions: for Grade 3 Hypertension / Grade 4 Hypertension: number of patients. The protocol:
Thirty-three subjects with advanced solid tumors initiated treatment with OMP-21M18 in a Phase I clinical trial. The trial was designed to determine the maximum tolerated dose (MTD), safety, pharmacokinetics, immunogenicity, and preliminary efficacy of OMP-21M18 in subjects with advanced solid tumors. All subjects had histologically confirmed malignancies that were metastatic or unresectable and had received extensive treatment for their cancer.
OMP-21M18 was prepared for use at a concentration of 10 mg/mL in a solution of 50 mM histidine, 100 mM sodium chloride, 45 mM sucrose, and 0.01% (w/v) Polysorbate 20, with the pH adjusted to 6.0. Once prepared, OMP-21M18 was stored as 20 mL aliquots in 25-cc vials.

The mark [3] stands for this setting: Subject 2 on OMP-21M18 1 mg/kg, labetalol 400 bid, lasix 20 mg qd, Norvasc 10 mg qd, Prinzide 20/25 mg together, 7 additional OMP-21M18 doses without hypertension.
The mark [4] stands for this setting: Subject 1 on OMP-21M18 0.5 mg/kg weekly, Lotensin, Norvasc and hydrochlorothiazide together.
[5] abbreviates: 2.5 mg/kg every 2 weeks, 6 patients.
Where [6] appears, read: 5.0 mg/kg every 2 weeks, 6 patients.
Where [7] appears, read: 10.0 mg/kg every 2 weeks, 6 patients, one patient had both Grade 3 and Grade 4.

Counter-ions that a name gives are not always drawn.

For `NS(=O)(=O)c1cc(C(=O)O)c(NCc2ccco2)cc1Cl` [lasix, reference compound], the “blood pressure control by anti-hypertensive regimen” value (“blood pressure control” below) in data set [1] (setting [3]) is “controlled their blood pressure”.
Still for that read-out and setting: to `CC(CCc1ccccc1)NCC(O)c1ccc(O)c(C(N)=O)c1` (centres unmarked) [labetalol, reference compound] belongs “controlled their blood pressure”.
Take `CCOC(=O)C1=C(COCCN)NC(C)=C(C(=O)OC)C1c1ccccc1Cl` (centres unmarked) [Norvasc®, amlodipine besylate, reference compound]: the entries for the “blood pressure control” value in data set [1] (setting [4]) and in data set [1] (setting [3]) were “adequate blood pressure control” and “controlled their blood pressure”, respectively. In data set [1] (Subject 3 on OMP-21M18 2.5 mg/kg, Norvasc 5 mg qd, discontinued Day 141), the “adverse event leading to discontinuation of anti-hypertensive” value was “ankle edema”.
Take `CCOC(=O)[C@H](CCc1ccccc1)N[C@H]1CCc2ccccc2N(CC(=O)O)C1=O` [Lotensin®, benazepril hydrochloride, reference compound]: the “blood pressure control” value in data set [1] (setting [4]) is given as “adequate blood pressure control”.
Same read-out and setting: to `NS(=O)(=O)c1cc2c(cc1Cl)NCNS2(=O)=O` [hydrochlorothiazide, reference compound] belongs “adequate blood pressure control”.

B1: OMP-21M18: humanized anti-DLL4 antibody encoded by the plasmid with ATCC deposit number PTA-8425 (antibody, V domains shown)
VH: QVQLVQSGAEVKKPGASVKISCKASGYSFTAYYIHWVKQAPGQGLEWIGYISSYNGATNYNQKFKGRVTFTTDTSTSTAYMELRSLRSDDTAVYYCARDYDYDVGMDYWGQGTLVTVSS
VL: DIVMTQSPDSLAVSLGERATISCRASESVDNYGISFMKWFQQKPGQPPKLLIYAASNQGSGVPDRFSGSGSGTDFTLTISSLQAEDVAVYYCQQSKEVPWTFGGGTKVEIK
modifications: Heavy chain variable region, H7; Light chain variable region
Turning to B1, the “Total Incidence of Hypertension” value is listed as 1/3 in data set [2] (0.5 mg/kg weekly, 3 patients); 1/3 in data set [2] (1.0 mg/kg weekly, 3 patients); 1/6 in data set [2] (setting [5]); 2/6 in data set [2] (2.5 mg/kg weekly, 6 patients); 1/3 in data set [2] (setting [6]); 0/3 in data set [2] (5.0 mg/kg weekly, 3 patients). In data set [2] (10.0 mg/kg every 2 weeks, 6 patients), the “Total Incidence of Hypertension” value is given as 6/6. The “Grade 3 Hypertension” value in data set [2] (0.5 mg/kg weekly, 3 patients) was determined as 1; in data set [2] (1.0 mg/kg weekly, 3 patients) it was 1; in data set [2] (setting [5]), 1; in data set [2] (2.5 mg/kg weekly, 6 patients), 2; in data set [2] (setting [6]), 1; in data set [2] (5.0 mg/kg weekly, 3 patients) it was 0. Moreover, in data set [2] (setting [7]), the “Grade 3 Hypertension” value stood at 6. The “Grade 4 Hypertension” value is given as 0 in data set [2] (0.5 mg/kg weekly, 3 patients); 0 in data set [2] (1.0 mg/kg weekly, 3 patients); 0 in data set [2] (setting [5]); 0 in data set [2] (2.5 mg/kg weekly, 6 patients); 0 in data set [2] (setting [6]); 0 in data set [2] (5.0 mg/kg weekly, 3 patients). Moreover, in data set [2] (setting [7]), the “Grade 4 Hypertension” value is reported as 1. For the same molecule, the “subjects who experienced Grade 3 or Grade 4 hypertension” value in data set [2] (10.0 mg/kg dose level) is given as 6 of 6. Moreover, the “subjects whose hypertension was labeled grade three” value in data set [2] (of the twelve subjects with hypertension, asymptomatic, controlled with oral anti-hypertensive, treatment continued) is listed as “eleven”. In addition, the “subjects for whom hypertension was reported during the course of therapy” value in data set [2] (of thirty-three subjects, all dose cohorts) was “twelve”. In data set [2] (thirty-three subjects, all dose cohorts), the “patients with hypertension reported” value is 36%. The “blood pressure, highest reported” value in data set [1] (Subject 1, 0.5 mg/kg weekly, Day 21, 15 minutes post infusion, baseline 135/73, on Lotensin 30 mg qd) is on record as 199/92. Further, the blood pressure in data set [1] (Subject 1, 0.5 mg/kg weekly, Day 24, baseline 135/73, on Lotensin 30 mg qd) is on record as 183/89; in data set [1] (Subject 1, 0.5 mg/kg weekly, Day 32, on Lotensin 40 mg qd and Norvasc 5 mg qd) it was 177/88; in data set [1] (Subject 1, 0.5 mg/kg weekly, Day 41, on Lotensin 40 mg qd and Norvasc 10 mg qd), 160/85; in data set [1] (Subject 2, 1 mg/kg weekly, Day 7 (high), baseline 141/85, on lisinopril 10 mg qd), 177/93; in data set [1] (Subject 2, 1 mg/kg weekly, Day 14, on lisinopril plus irbesartan/hydrochlorothiazide, study drug dose not administered) it was 173/110; in data set [1] (Subject 2, 1 mg/kg weekly, Day 21, on labetalol 100 mg bid and Prinzide 10/12.5 qd) it was 164/112. Besides, the blood pressure in data set [1] (Subject 2, 1 mg/kg weekly, Day 55, on labetalol 400 mg bid and Prinzide 10/12.5 qd) is given as 163/91; in data set [1] (Subject 2, 1 mg/kg, Day 84, on labetalol 400 mg bid and Prinzide 20/25 qd, OMP-21M18 dose not administered), 167/102; in data set [1] (Subject 3, 2.5 mg/kg weekly, Day 21, baseline 96/54, no prior history of hypertension), 159/90; in data set [1] (Subject 3, 2.5 mg/kg, Day 112, on Dyazide 1 po qd) it was 152/77; in data set [1] (Subject 3, 2.5 mg/kg, Day 146, on lisinopril 20 mg bid), 143/85; in data set [1] (Subject 4, 2.5 mg/kg cohort, Day 14, baseline 118/73, on dyazide and lisinopril, increase not related to study drug according to the Investigator), 153/79. Moreover, the blood pressure in data set [1] (Subject 5, 10 mg/kg once every other week, Day 9, baseline 130/90) is recorded as 160/90; in data set [1] (Subject 5, 10 mg/kg once every other week, Day 26, at home, on lisinopril 5 mg qd), 170/90; in data set [1] (Subject 5, 10 mg/kg once every other week, Day 62, on lisinopril 10 mg bid), 190/120; in data set [1] (Subject 5, 10 mg/kg once every other week, Day 65, on lozartan 25 mg, bisoprolol 2.5 mg, amlodipine 5 mg qd) it was 170/106; in data set [1] (Subject 6, 10 mg/kg cohort, Day 28, single reading, on enalapril) it was 150/90; in data set [1] (Subject 6, 10 mg/kg cohort, subsequent reading after Day 28, on enalapril), 150/90. For the same molecule, the blood pressure in data set [1] (Subject 6, 10 mg/kg cohort, subsequent to start of enalapril 10 mg bid on Day 9, baseline 125/90) is reported as 140/90; in data set [1] (Subject 7, 10 mg/kg once every other week, Day 9, baseline 135/90, on enalapril 5 mg bid), 170/90; in data set [1] (Subject 7, 10 mg/kg once every other week, Day 56, on enalapril 10 mg bid), 155/90; in data set [1] (Subject 8, 10 mg/kg once every other week, Day 17, home reading, baseline 140/90, captopril 25 mg as needed) it was 160/90; in data set [1] (Subject 8, 10 mg/kg once every other week, Day 22, in the clinic, on captopril 12.5 qd) it was 130/80; in data set [1] (Subject 8, 10 mg/kg once every other week, Days 23-28, at home, on captopril 12.5 qd), 150/90. The blood pressure in data set [1] (Subject 9, 10 mg/kg once every other week, Day 7, on nifedipine 20 mg qd) was 130/80; in data set [1] (Subject 9, 10 mg/kg once every other week, Day 74, on nifedipine 20 mg qd, then discontinued), 115/75.

Values taken from patent US10870693B2, “Therapeutic combination and methods of treatment with a DLL4 antagonist and an anti-hypertensive agent” (OncoMed Pharmaceuticals, Inc., priority 2009, dated 2020).
